Tested on: Bacillus subtilis
Assay: cleaved RNA product abundance (RNA/gDNA barcode ratio) relative to median wild-type variant (ratio to wild type); higher = more accumulation of the downstream cleavage product
Conditions: cleavage site: cggR-gapA (positions -7 to +36 mutated)
Procedure, shortened: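 Cleaved product abundance is expressed as the RNA:gDNA barcode ratio per construct, scaled to the median construct carrying the unmutated site. The constructs were barcoded, mutagenized RNase Y cleavage-site windows in truncated aprE or tetM reporter mRNAs integrated into the B. subtilis chromosome. Cultures grew in LB at 37°C from OD600 0.0003 to 0.3 before cleaved RNA was gel-selected and barcode-sequenced.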

[1] = experiment (reporter, strain, medium): exp 4a: truncated aprE reporter, strain BJT201 with 2% xylose (RNase J1 expressed)
[2] = experiment (reporter, strain, medium): exp 2b: truncated aprE reporter, strain BJT200

Row | Sequence | cleaved RNA product abundance [1] | cleaved RNA product abundance [2] | cleaved RNA product abundance (experiment (reporter, strain, medium): exp 6: tetM reporter, strain 168)
1 | ACAGACGAAGGAGCCGCAATGAAGTTATTAACGGATGAATAATCCCTCAATATAAATATCTCTCACTTATTTAAA | 0.145 | – | –
2 | ACAGACGAAGGAGCCGCAATGAAGTTATTAAGAGATGAATAATCCCTCAATATAAATATCTCTCACTTATTTAAA | 0.204 | 0.131 | –
3 | ACAGACGAAGGAGCCGCAATGAAGTTATTAAGCGATGAATAATCCCTCAATATAAATATCTCTCACTTATTTAAA | 0.108 | 0.0928 | –
4 | ACAGACGAAGGAGCCGCAATGAAGTTATTAAGGAATGAATAATCCCTCAATATAAATATCTCTCACTTATTTAAA | 0.102 | 0.131 | –
5 | ACAGACGAAGGAGCCGCAATGAAGTTATTAAGGGAAGAATAATCCCTCAATATAAATATCTCTCACTTATTTAAA | 0.702 | 0.389 | –
6 | ACAGACGAAGGAGCCGCAATGAAGTTATTAAGGGATAAATAATCCCTCAATATAAATATCTCTCACTTATTTAAA | 0.659 | – | –
7 | ACAGACGAAGGAGCCGCAATGAAGTTATTAAGGGATGAAAAATCCCTCAATATAAATATCTCTCACTTATTTAAA | 0.548 | – | –
8 | ACAGACGAAGGAGCCGCAATGAAGTTATTAAGGGATGAATAAACCCTCAATATAAATATCTCTCACTTATTTAAA | 0.454 | 0.647 | –
9 | ACAGACGAAGGAGCCGCAATGAAGTTATTAAGGGATGAATAATACCTCAATATAAATATCTCTCACTTATTTAAA | 0.138 | – | –
10 | ACAGACGAAGGAGCCGCAATGAAGTTATTAAGGGATGAATAATCACTCAATATAAATATCTCTCACTTATTTAAA | 0.129 | 0.126 | –
11 | ACAGACGAAGGAGCCGCAATGAAGTTATTAAGGGATGAATAATCCATCAATATAAATATCTCTCACTTATTTAAA | 0.251 | – | –
12 | ACAGACGAAGGAGCCGCAATGAAGTTATTAAGGGATGAATAATCCCACAATATAAATATCTCTCACTTATTTAAA | 0.367 | – | –
13 | ACAGACGAAGGAGCCGCAATGAAGTTATTAAGGGATGAATAATCCCTAAATATAAATATCTCTCACTTATTTAAA | 0.792 | – | –
14 | ACAGACGAAGGAGCCGCAATGAAGTTATTAAGGGATGAATAATCCCTCAAAATAAATATCTCTCACTTATTTAAA | 0.355 | – | –
15 | ACAGACGAAGGAGCCGCAATGAAGTTATTAAGGGATGAATAATCCCTCAATATAAAAATCTCTCACTTATTTAAA | 1.03 | 0.872 | –
16 | ACAGACGAAGGAGCCGCAATGAAGTTATTAAGGGATGAATAATCCCTCAATATAAATATCTCTCACTTATTTAAA | 1.12 | 1.1 | 0.968
17 | ACAGACGAAGGAGCCGCAATGAAGTTATTAAGGGATGAATAATCCCTCAATATGAATATCTCTCACTTATTTAAA | 0.141 | – | –
18 | ACAGACGAAGGAGCCGCAATGAAGTTATTAAGGGATGAATAATCCCTCAATATTAATATCTCTCACTTATTTAAA | – | 0.226 | –
19 | ACAGACGAAGGAGCCGCAATGAAGTTATTAAGGGATGAATAATCCCTCTATATAAATATCTCTCACTTATTTAAA | 0.689 | – | –
20 | ACAGACGAAGGAGCCGCAATGAAGTTATTAAGGGATGAATAATCCCTGAATATAAATATCTCTCACTTATTTAAA | 0.713 | – | –
21 | ACAGACGAAGGAGCCGCAATGAAGTTATTAAGGGATGAATAATCCTTCAATATAAATATCTCTCACTTATTTAAA | 0.581 | – | –
22 | ACAGACGAAGGAGCCGCAATGAAGTTATTAAGGGATGAATAATCGCTCAATATAAATATCTCTCACTTATTTAAA | 0.0881 | – | –
23 | ACAGACGAAGGAGCCGCAATGAAGTTATTAAGGGATGAATAATCTCTCAATATAAATATCTCTCACTTATTTAAA | 0.845 | 0.942 | –
24 | ACAGACGAAGGAGCCGCAATGAAGTTATTAAGGGATGAATAATGCCTCAATATAAATATCTCTCACTTATTTAAA | – | 0.122 | –
25 | ACAGACGAAGGAGCCGCAATGAAGTTATTAAGGGATGAATAATTCCTCAATATAAATATCTCTCACTTATTTAAA | 0.517 | 0.505 | –
26 | ACAGACGAAGGAGCCGCAATGAAGTTATTAAGGGATGAATACTCCCTCAATATAAATATCTCTCACTTATTTAAA | – | 0.379 | –
27 | ACAGACGAAGGAGCCGCAATGAAGTTATTAAGGGATGAATATTCCCTCAATATAAATATCTCTCACTTATTTAAA | 0.519 | 0.573 | –

Row | Sequence | cleaved RNA product abundance [1] | cleaved RNA product abundance [2] | cleaved RNA product abundance (experiment (reporter, strain, medium): exp 6: tetM reporter, strain 168)
28 | ACAGACGAAGGAGCCGCAATGAAGTTATTAAGGGATGAATGATCCCTCAATATAAATATCTCTCACTTATTTAAA | 0.506 | – | –
29 | ACAGACGAAGGAGCCGCAATGAAGTTATTAAGGGATGTATAATCCCTCAATATAAATATCTCTCACTTATTTAAA | 1.53 | – | –
30 | ACAGACGAAGGAGCCGCAATGAAGTTATTAAGGGATGTATAATCCCTCAATTTAAATATCTCTCACTTATTTAAA | 0.25 | – | –
31 | ACAGACGAAGGAGCCGCAATGAAGTTATTAAGGGATTAATAATCCCTCAATATAAATATCTCTCACTTATTTAAA | 1.06 | 0.989 | –
32 | ACAGACGAAGGAGCCGCAATGAAGTTATTAAGGGCTGAATAATCCCTCAATATAAATATCTCTCACTTATTTAAA | 0.472 | 0.583 | –
33 | ACAGACGAAGGAGCCGCAATGAAGTTATTAAGGGTTGAATAATCCCTCAATATAAATATCTCTCACTTATTTAAA | – | 0.325 | –
34 | ACAGACGAAGGAGCCGCAATGAAGTTATTAAGGTATGAATAATCCCTCAATATAAATATCTCTCACTTATTTAAA | 0.146 | 0.109 | –
35 | ACAGACGAAGGAGCCGCAATGAAGTTATTAAGTGATGAATAATCCCTCAATATAAATATCTCTCACTTATTTAAA | – | 0.0987 | –
36 | ACAGACGAAGGAGCCGCAATGAAGTTATTAAGTGATGAATAATCCGTCAATATAAATATCTCTCACTTATTTAAA | 0.0953 | – | –
37 | ACAGACGAAGGAGCCGCAATGAAGTTATTAATGGATGAATAATCCCTCAATATAAATATCTCTCACTTATTTAAA | 0.202 | 0.126 | –
38 | ACAGACGAAGGAGCCGCAATGAAGTTATTATGGGATGAATAATCCCTCAATATAAATATCTCTCACTTATTTAAA | 0.464 | – | –
39 | ACAGACGAAGGAGCCGCAATGAAGTTATTTAGGGATGAATAATCCCTCAATATAAATATCTCTCACTTATTTAAA | 0.738 | – | –
40 | ACAGACGAAGGAGCCGCAATGAAGTTTTTAAGGGATGAATAATCCCTCAATATAAATATCTCTCACTTATTTAAA | 0.578 | – | –
41 | ACAGACGAAGGAGCCGCAATGAATTTATTAAGGGATGAATAATCCCTCAATATAAATATCTCTCACTTATTTAAA | 0.786 | – | –
42 | ACAGACGAAGGAGCCGCAATGTAGTTATTAAGGGATGAATAATCCCTCAATATAAATATCTCTCACTTATTTAAA | 1.43 | – | –
43 | ACAGACGAAGGAGCCGCAATTAAGTTATTAAGGGATGAATAATCCCTCAATATAAATATCTCTCACTTATTTAAA | 0.863 | 0.955 | –
44 | ACAGACGAAGGAGCCGCACACAAGTTATTAAGGGATGAATAATCCCTCAATATAAATATCTCTCACTTATTTAAA | 0.483 | – | –
45 | ACAGACGAAGGAGCCGCACAGAACTTATTAAGGGATGAATAATCCCTCAATATAAATATCTCTCACTTATTTAAA | 0.558 | – | –
46 | ACAGACGAAGGAGCCGCACAGAAGATATTAAGGGATGAATAATCCCTCAATATAAATATCTCTCACTTATTTAAA | 0.364 | – | –
47 | ACAGACGAAGGAGCCGCACAGAAGTAATTAAGGGATGAATAATCCCTCAATATAAATATCTCTCACTTATTTAAA | 0.391 | – | –
48 | ACAGACGAAGGAGCCGCACAGAAGTCATTAAGGGATGAATAATCCCTCAATATAAATATCTCTCACTTATTTAAA | 0.43 | – | –
49 | ACAGACGAAGGAGCCGCACAGAAGTGATTAAGGGATGAATAATCCCTCAATATAAATATCTCTCACTTATTTAAA | 0.311 | 0.259 | –
50 | ACAGACGAAGGAGCCGCACAGAAGTTAATAAGGGATGAATAATCCCTCAATATAAATATCTCTCACTTATTTAAA | 0.309 | – | –
51 | ACAGACGAAGGAGCCGCACAGAAGTTACTAAGGGATGAATAATCCCTCAATATAAATATCTCTCACTTATTTAAA | 0.22 | – | –
52 | ACAGACGAAGGAGCCGCACAGAAGTTATAAAGGGATGAATAATCCCTCAATATAAATATCTCTCACTTATTTAAA | 0.414 | – | –
53 | ACAGACGAAGGAGCCGCACAGAAGTTATCAAGGGATGAATAATCCCTCAATATAAATATCTCTCACTTATTTAAA | 0.365 | – | –
54 | ACAGACGAAGGAGCCGCACAGAAGTTATTAAAGGATGAATAATCCCTCAATATAAATATCTCTCACTTATTTAAA | 0.177 | 0.173 | –
